Laboratory results published in patent publication US20040002127A1 (CHISSO, published 2004).

Target: T1, 35 kDa protein of Oplophorus luciferase (native, purified from Oplophorus gracilirostris) (Oplophorus gracilirostris, UniProt Q9GV46 40-359)
T1 sequence: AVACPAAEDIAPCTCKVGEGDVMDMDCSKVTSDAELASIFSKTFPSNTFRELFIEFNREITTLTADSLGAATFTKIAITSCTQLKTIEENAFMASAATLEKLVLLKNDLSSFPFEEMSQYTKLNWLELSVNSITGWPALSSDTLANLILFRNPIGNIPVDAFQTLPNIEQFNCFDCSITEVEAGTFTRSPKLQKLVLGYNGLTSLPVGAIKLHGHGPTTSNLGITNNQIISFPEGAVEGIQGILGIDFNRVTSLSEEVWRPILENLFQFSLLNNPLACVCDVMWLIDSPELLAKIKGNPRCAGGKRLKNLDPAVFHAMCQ
Assay: gel filtration of native luciferase (about 106 kDa) against SDS-PAGE and SDS gel filtration HPLC (35 kDa and 19 kDa components)
Method: The deep-sea luminous shrimp (Oplophorus gracilirostris) obtained in the Suruga Bay, Shizuoka, Japan were used as a starting material. A crude extract containing Oplophorus luciferase was prepared in the same manner as disclosed by Shimomura, et al., in Biochemistry 17 (1978) and further purified by chromatography in two steps. The first step was by hydrophobic interaction chromatography on a column of butyl Sepharose 4 Fast Flow (Pharmacia; 0.7 cm×3.5 cm) using 20 mM Tris-HCl, pH 8.5, eluting with decreasing concentrations of ammonium sulfate starting at 1.5 M. The second step was by gel filtration on a column of Superdex 200 Prep (Pharmacia; 1 cm×48 cm) in 20 mM Tris-HCl, pH 8.5, containing 50 mM NaCl. The molecular weight of Oplophorus luciferase was estimated to be about 106 kDa by gel filtration on the same column when compared with the molecular weight markers as follows: (a) amylase (200 kDa); (b) alcohol dehydrogenase (150 kDa); (c) bovine serum albumin (67 kDa); (d) ovalbumin (45 kDa); (e) carbonic anhydrase (29 kDa); and (f) ribonuclease (13.7 kDa).
SDS-PAGE analysis (12% polyacrylamide gel) of the purified samples gave two major protein bands corresponding to molecular weights of 35 kDa and 19 kDa, respectively. […]

B1: 19 kDa protein of Oplophorus luciferase (native, purified from Oplophorus gracilirostris) (enzyme)
chain: FTLADFVGDWQQTAGYNQDQVLEQGGLSSLFQALGVSVTPIQKVVLSGENGLKADIHVIIPYEGLSGFQMGLIEMIFKVVYPVDDHHFKIILHYGTLVIDGVTPNMIDYFGRPYPGIAVFDGKQITVTGTLWNGNKIYDERLINPDGSLLFRVTINGVTGWRLCENILA
notes: also called 19 kDa photoprotein
binding result: binds
